In US20220193114A1:

Biological target: MuSK (wild type, full length, mouse) (mouse) (UniProt Q61006)
Assay: cell-based or functional assay

Sequence of UniProt Q61006 (Q61006 22-868): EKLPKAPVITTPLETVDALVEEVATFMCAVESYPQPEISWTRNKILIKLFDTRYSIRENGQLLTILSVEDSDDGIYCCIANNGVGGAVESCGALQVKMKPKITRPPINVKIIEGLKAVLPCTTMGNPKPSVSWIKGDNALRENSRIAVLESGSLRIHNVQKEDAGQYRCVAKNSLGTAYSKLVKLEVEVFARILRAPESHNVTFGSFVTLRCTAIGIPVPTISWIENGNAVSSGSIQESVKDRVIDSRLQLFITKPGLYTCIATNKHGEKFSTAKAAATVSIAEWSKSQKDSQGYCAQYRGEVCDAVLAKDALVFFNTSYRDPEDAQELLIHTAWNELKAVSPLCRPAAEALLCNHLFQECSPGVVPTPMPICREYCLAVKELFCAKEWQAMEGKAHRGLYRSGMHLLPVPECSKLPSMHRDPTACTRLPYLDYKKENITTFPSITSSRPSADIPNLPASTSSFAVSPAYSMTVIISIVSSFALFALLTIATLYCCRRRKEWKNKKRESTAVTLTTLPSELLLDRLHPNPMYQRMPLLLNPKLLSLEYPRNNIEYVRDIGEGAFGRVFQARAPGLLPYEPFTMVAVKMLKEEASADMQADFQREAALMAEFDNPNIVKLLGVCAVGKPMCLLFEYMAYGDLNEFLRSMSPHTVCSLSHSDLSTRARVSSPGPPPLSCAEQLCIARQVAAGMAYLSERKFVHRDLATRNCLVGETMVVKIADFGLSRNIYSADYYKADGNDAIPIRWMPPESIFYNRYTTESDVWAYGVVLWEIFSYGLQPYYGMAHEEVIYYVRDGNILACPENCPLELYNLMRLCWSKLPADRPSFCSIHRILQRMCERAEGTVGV

transcription of Wnt11 in response to BMP4 (qRT-PCR, primary myotubes), WT response relative to ΔIg3-MuSK response (fold (WT response / ΔIg3-MuSK response)): 2.2
transcriptional response of Dok7 to BMP4 (qRT-PCR, primary myotubes), WT response relative to ΔIg3-MuSK response (fold (WT response / ΔIg3-MuSK response)): 1.6
Substance: BMP4 (ligand)
